# Measurements as given in patent US20260008856A1, “METHODS OF TREATING DISEASE USING ANTI-IL1RAP ANTIBODIES AND ANTIBODY DRUG CONJUGATES” (Bluefin Biomedicine, Inc., priority 2022, published 2026).
# Residue numbers refer to the chain shown, from its start.
# B1: 39G1_21C4: human anti-IL1RAP antibody, VH SEQ ID NO: 56, VL SEQ ID NO: 60 (antibody, V domains shown)
# VH: QVQLQESGPGLVKPSETLSLTCAVSGYSASGVYYWGWIRQPPGKGLEWIGNIYHSGSTYYNPSLERRVSISLDTSKNHFSLRLNFVTAADTAVYYCARDRFDAFDIWGQGTMVTVSS
# VL: EIVMTQSPATLSVSPGERATLSCRASQSINNILAWYQQKPGQAPRLLIYGASTRATGIPARFSGSGSGTEFTLTISSLQSEDFAVYYCQQYNNWPLTFGGGTKVEIK
# B2: 5D12_18A4: human anti-IL1RAP antibody, VH SEQ ID NO: 163, VL SEQ ID NO: 167 (antibody, V domains shown)
# VH: QVQLQESGPGLVKPLGTLSLTCAVSGGSISNSNWWSWVRQPPGKGLEWIGEIYHSGSTNYNPSLKSRVTIALDWSKNQFSLQLRSVTAADTAVYYCARYGSGPFGGDCWGQGTLVTVSS
# VL: DIQLTQSPSFLSASVGDRVTISCRASQGISSYLAWYQQKPGKAPKLLIYAASTLQGGVPSRFSGSGSGTTFTLTISSLQPEDFATYYCQQLNTYPFTFGPGTKLEIK
# B3: 5G8_18A1: human anti-IL1RAP antibody, VH SEQ ID NO: 1, VL SEQ ID NO: 5 (antibody, V domains shown)
# VH: QVELQESGPGLVKPSDTLSLTCTVTGGSISTYYWSWIRQPPGKGLEWIGYIFYTGTTNYNPSLKSRVTISVDASKNQFSLKLNSVTAADTAVYYCARDGSLDYWGQGALVTVSS
# VL: DIQMTQSPSSLSASVGDRVTITCRASQSISNYLNWYQQKPGKAPKLLIFVASLLQSGVPSRFSGSGSGTDFTLTISSLQPEDFATYYCQQSYSTPFTFGPGTKLEIK
# B4: 16H2_17D2: human anti-IL1RAP antibody, VH SEQ ID NO: 25, VL SEQ ID NO: 29 (antibody, V domains shown)
# VH: QVQLVESGGGVVQPGGSLRLSCAASGFTFSSHGMHWVRQAPGKGLEWVAVIWYDGSNKFYTDSVQGRFTISRDNSKNTLNLQMNSLRAEDTAVYYCAREGLRAGYYFDFWGQGTLVTVSS
# VL: B3 VL with S28R, N31F, L33S, F49Y, V50A, L53S, Y87F, Y92H, F96L, P100G
# B5: 36A10_21B6: human anti-IL1RAP antibody, VH SEQ ID NO: 48, VL SEQ ID NO: 52 (antibody, V domains shown)
# VH: QGQVVESGGGVVQPGRSLRLSCAASGFTFSSYTLHWVRQAPGKGLEWVAVIWYDGSNKYYVDSVKGRFTISRDNSKNTLYLQMNSLRAEDTAVYYCAREYGSGSYYNVYYGMDVWGQGTTVTLSS
# VL: DIVMTQSPLSLPVTPGEPASISCRSSQSLLHSNGYNYLDWYLQKPGQSPHLLIYLASNRASGVPDRFSGSGSGTDFTLKISRVEAEDVGFYYCMQTLQIPLTFGGGTKVEIK
# B6: 10C8_15A4: human anti-IL1RAP antibody, VH SEQ ID NO: 106, VL SEQ ID NO: 108 (antibody, V domains shown)
# VH: EEQLLESGADLAQPGGSLRLSCAASGFTFSSYAMSWVRQAPGKGLEWVSTIRISGDTTYYADSVKGRFTISRDNSKNTLFLQMNSLRAEDTAVYYCVRDYYNGMDVWGHGTTVTVSS
# VL: EIVLTQSPATLSLSPGERATLSCRASQRVSSYLAWYQQKPGQAPRLLIYDASNRATGIPARFSGSGSGTDFTLTISSLEPEDFAVYYCQQRSYWPPAFGQGTKLEIK
# B7: 26C5_15B4: human anti-IL1RAP antibody, VH SEQ ID NO: 96, VL SEQ ID NO: 98 (antibody, V domains shown)
# VH: EAQLLESGGGLVQPGGSLRLSCAASGFTFSSYAMSWVRQAPGKGLEWVSTISGSGGSTHYADSVKGRFTISRDNSKNTLYLQMNSLRAEDTAVYYCVRDYYYGMDVWGQGTTVTVSS
# VL: B6 VL with R28S, A97T
# B8: 16H2_17D1: human anti-IL1RAP antibody, VH SEQ ID NO: 83, VL SEQ ID NO: 87 (antibody, V domains shown)
# VH: B6 VH with E2V, A12V, D56G, F80Y, H109Q
# VL: B6 VL
# Biological target: T1, mouse IL1RAP (Mus musculus, UniProt Q61730)
# T1 construct: Met1-Val570; host or cells: HEK-293T
# Assay: Flow cytometry binding to 293 cells expressing mouse IL1RAP
# Format: cell-based
# Conditions: 1 ug/ml
# Description: 293T cell line was purchased from American Type Culture Collection (ATCC). 293T cells expressing human, Macaca fascicularis, rat, and mouse IL1RAP were maintained in DMEM medium (Invitrogen) with 10% fetal bovine serum (FBS) (Sigma) in the presence of 2 ug/ml puromycin (Invitrogen).
# (§1) Staining for flow cytometry was performed in 1× cold PBS with 0.5% BSA. Primary antibodies (1 ug/ml) were incubated with live cells on ice for 30 minutes, after a brief wash, cells were incubated with Alexa Fluro® 488-conjugated anti-human IgG secondary antibody @1:1000 (709-546-149, Jackson ImmunoResearch). Acquisition of the data was performed on a MACSQuant® Flow Cytometers (Miltenyi Biotec) and analyzed with FlowJo software.
# T1 sequence (Q61730 21-570): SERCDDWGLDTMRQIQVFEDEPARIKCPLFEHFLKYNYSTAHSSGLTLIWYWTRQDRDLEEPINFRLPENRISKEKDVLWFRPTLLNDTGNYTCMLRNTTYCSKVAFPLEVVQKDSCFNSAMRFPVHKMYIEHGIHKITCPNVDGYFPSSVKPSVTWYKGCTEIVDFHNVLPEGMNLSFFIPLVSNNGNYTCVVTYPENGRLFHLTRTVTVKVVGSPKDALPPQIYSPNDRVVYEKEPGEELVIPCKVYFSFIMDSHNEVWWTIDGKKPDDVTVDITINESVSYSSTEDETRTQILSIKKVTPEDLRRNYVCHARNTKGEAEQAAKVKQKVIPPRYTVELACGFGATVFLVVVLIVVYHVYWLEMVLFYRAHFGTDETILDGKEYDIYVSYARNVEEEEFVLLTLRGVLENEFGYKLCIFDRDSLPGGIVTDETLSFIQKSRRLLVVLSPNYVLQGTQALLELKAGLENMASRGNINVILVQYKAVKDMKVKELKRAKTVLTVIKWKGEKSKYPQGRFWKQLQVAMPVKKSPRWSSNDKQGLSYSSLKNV
row,Molecule,binding to 293 cells expressing mouse IL1RAP
1,B1,bind weakly
2,B2,bind weakly

# Biological target: T2, recombinant human IL1RAP (Homo sapiens, UniProt Q9NPH3)
# T2 construct: MBP-IL1RAP(S21-T367)-; 8xHis (C); made in house; host or cells: CHO (ExpiCHO transient expression)
# Assay: Binding competition binning on Octet
# Conditions: Protein A biosensors
# Description: Binding Competition binning: Binding competition among different antibodies was determined using a real-time, interferometry assay on an Octet Red™ instrument with Protein A-conjugated biosensors. To assess whether two antibodies competed for binding to a recombinant IL1RAP protein, the assay was performed as follows. Protein A biosensors were first submerged into wells containing 10 ug/mL of individual monoclonal antibodies for 5 minutes. Following the capture step, the biosensors were dipped briefly (15 seconds) into buffer and then any unoccupied sites on the biosensor were saturated by submerging them for 5 minutes into wells containing 100 ug/mL of an irrelevant monoclonal antibody. The Octet™ biosensors were then dipped briefly (15 seconds) in buffer before immersion for 1 minute into wells containing recombinant IL1RAP. The biosensors were dipped briefly (15 seconds) in buffer before immersion for 1 minute into wells containing a second recombinant antibody.
# For the control case where the second antibody was the same as the first, there was no increase in signal, because there was no additional binding to the recombinant target.
# For the control case where buffer was used instead of the first antibody, no recombinant target bound the non-quenching antibody on the biosensor and no second antibody bound the biosensor.
# Selected antibodies were evaluated in pairs for their ability to simultaneously bind recombinant human IL1RAP. The analysis was performed by Octet™ loaded with Protein A Biosensors. A total of five different bins were determined as follows.
Molecule,"competition for binding, bin (1)","competition for binding, bin (2)","competition for binding, bin (3)","competition for binding, bin (4)"
B1,competed with each other,–,–,–
B2,competed with each other,–,–,–
B3,–,competed with each other,competed with each other,–
B4,–,competed with each other,–,–
B5,–,–,competed with each other,competed with each other

# Test system: Karpas 299
# Assay: Flow cytometry binding to endogenous cell line Karpas 299
# Format: cell-based, human
# Parameters: key to binding to Karpas 299 by flow cytometry: (−): No binding; (+): Weak binding; (++): Moderate binding; (+++): Strong binding
# Conditions: primary antibody 1 ug/ml
# Description: as §1
# (§2) Over 1,000 hits were identified that bind strongly to CHO-human IL1RAP, but not parental CHO cells. 68 clones were selected for molecular cloning. Based on unique CDR3 sequences from the heavy chain variable domain, 35 antibodies from 13 families were confirmed by binding in IL1RAP positive cell lines EOL1 and Karpas 299 (see Table 8) by flow cytometry (MACSQuant® www.miltenybiotec.com).
row,Molecule,binding to Karpas 299 by flow cytometry
1,B6,(+++)
2,B7,(+++)
3,B8,(+++)
4,B2,(++)
5,B5,(++)

# Test system: IL-1β signaling
# Assay: IL-1 signaling reporter cell assay (HEK-Blue IL-1β cells), IL-1β
# Format: cell-based
# Conditions: HEK-Blue IL-1β cells, antibody 1-10 pg/ml, IL-1β 0.5 ng/ml
# Description: (§3) HEK-Blue IL-1β cells (Invivogen, CA) were harvested and plated in technical duplicates at a density of 50,000 cells per well in a 96-well plate. IL1RAP antibodies, or a corresponding human IgG1 control antibody was added to the wells in a concentration range of […]. After incubating cells with antibodies for 30 minutes, IL-1β was added to a final concentration of 0.5 ng/ml, and the plate was incubated overnight. To examine whether any of the antibodies were able to induce IL-1R activation in the absence of IL-1β, samples were incubated with 10 μg/mL antibody without addition of the ligand. The following day, substrate was added to the supernatants, and samples were analyzed for absorbance at 620 nm.
row,Molecule,inhibition of IL1R1 / IL-1 signaling
1,B1,do not inhibit
2,B3,potent inhibition
3,B4,potent inhibition
4,B5,potent inhibition

# Test system: IL-33 signaling
# Assay: IL-33 signaling reporter cell assay (HEK-Blue IL-33 cells)
# Format: cell-based
# Conditions: antibody 1-10 μg/ml, IL-33 0.5 ng/ml
# Description: FIGS. 7A and 7B show blockage of IL-33 signaling by anti-IL1RAP antibodies. HEK-Blue IL-33 cells (Invivogen, CA) were harvested and plated in technical duplicates at a density of 50,000 cells per well in a 96-well plate. Antibodies, or a corresponding human IgG1 control antibody, was added to the wells in a serial dilution starting at 10 μg/ml (FIG. 7A), or a concentration of 1 and 10 μg/ml (FIG. 7B). After incubating cells with antibodies for 30 minutes, IL-33 was added to a final concentration of 0.5 ng/ml, and the plate was incubated overnight. 24 hours later, substrate was added to the supernatants, and samples were analyzed for absorbance at 620 nm. CBIgG1 (anti-hen egg lysozyme antibody, CrownBio™) was included as a negative control.
# as §3, with “IL-33” for “IL-1β”, “plate.” for “plate. IL1RAP”, “ST2” for “IL-1R”, “IL-33,” for “IL-1β,”
row,Molecule,inhibition of IL-33 signaling
1,B1,do not inhibit
2,B5,partially inhibit

# Test system: EOL-1
# Assay: Flow cytometry binding to endogenous cell line EOL-1
# Format: cell-based, human
# Parameters: key to binding to EOL-1 by flow cytometry: (−): No binding; (+): Weak binding; (++): Moderate binding; (+++): Strong binding
# Conditions: primary antibody 1 ug/ml
# Description: as §1, §2
row,Molecule,binding to EOL-1 by flow cytometry
1,B6,(+++)
2,B7,(+++)
3,B8,(+++)
4,B1,(+++)
5,B2,(+++)
6,B3,(+++)
7,B4,(+++)
8,B5,(+++)

# Test system: MOLT3
# Assay: Flow cytometry binding to endogenous cell line MOLT3
# Format: cell-based
# Parameters: key: (−): No binding; (+): Weak binding; (++): Moderate binding; (+++): Strong binding
# Conditions: primary antibody 1 ug/ml
# Description: as §1
row,Molecule,binding to MOLT3 by flow cytometry
1,B1,(+)
2,B5,(+)

# Test system: H69
# Assay: Flow cytometry binding to endogenous cell line H69
# Format: cell-based
# Parameters: key: (−): No binding; (+): Weak binding; (++): Moderate binding; (+++): Strong binding
# Conditions: primary antibody 1 ug/ml
# Description: as §1
row,Molecule,binding to H69 by flow cytometry
1,B6,(−)
2,B7,(−)
3,B8,(−)
4,B3,(−)
